In test [1] the target is T1, human chimeric receptor FGFR4-Fc (R&D Systems) (human, UniProt P22455 22-369).
T1 construct: extracellular domain; bought; also called hFGFR4-Fc; not shown: human IgG Fc
T1 sequence (looked up): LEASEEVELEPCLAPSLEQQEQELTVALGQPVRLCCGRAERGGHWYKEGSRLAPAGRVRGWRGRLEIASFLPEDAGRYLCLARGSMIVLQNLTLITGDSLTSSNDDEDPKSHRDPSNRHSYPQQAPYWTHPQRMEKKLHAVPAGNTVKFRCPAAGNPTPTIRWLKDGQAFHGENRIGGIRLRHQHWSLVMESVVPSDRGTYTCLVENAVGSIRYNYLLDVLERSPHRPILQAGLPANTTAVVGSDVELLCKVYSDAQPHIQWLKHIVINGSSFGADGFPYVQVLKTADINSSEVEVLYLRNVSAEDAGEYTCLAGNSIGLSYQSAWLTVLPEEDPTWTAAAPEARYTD
Description: competition ELISA, FGF19 binding to FGFR4-Fc.

Test [2] has as its target T2, human chimeric receptor FGFR3-Fc (R&D Systems) (human, UniProt P22607 23-375).
T2 construct: extracellular domain; not shown: human Fc
T2 sequence (looked up): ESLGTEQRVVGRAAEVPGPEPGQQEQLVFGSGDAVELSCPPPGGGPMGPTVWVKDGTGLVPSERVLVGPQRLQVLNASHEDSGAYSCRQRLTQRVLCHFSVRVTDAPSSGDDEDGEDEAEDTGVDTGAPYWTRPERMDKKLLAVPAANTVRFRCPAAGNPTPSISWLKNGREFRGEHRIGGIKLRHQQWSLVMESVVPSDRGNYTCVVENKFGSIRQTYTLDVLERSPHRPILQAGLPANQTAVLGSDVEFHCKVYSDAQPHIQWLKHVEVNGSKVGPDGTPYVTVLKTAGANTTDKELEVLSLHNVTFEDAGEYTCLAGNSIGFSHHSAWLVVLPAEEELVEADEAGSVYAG
The test is described as follows: solid phase receptor binding assay.

The next test addresses T3, murine FGFR4 (mouse, UniProt Q03142 17-799).
T3 construct: whole, on cells; full-length, on transfected BOSC23 cells; also called murine receptor; murine FL FGFR4
T3 sequence (looked up): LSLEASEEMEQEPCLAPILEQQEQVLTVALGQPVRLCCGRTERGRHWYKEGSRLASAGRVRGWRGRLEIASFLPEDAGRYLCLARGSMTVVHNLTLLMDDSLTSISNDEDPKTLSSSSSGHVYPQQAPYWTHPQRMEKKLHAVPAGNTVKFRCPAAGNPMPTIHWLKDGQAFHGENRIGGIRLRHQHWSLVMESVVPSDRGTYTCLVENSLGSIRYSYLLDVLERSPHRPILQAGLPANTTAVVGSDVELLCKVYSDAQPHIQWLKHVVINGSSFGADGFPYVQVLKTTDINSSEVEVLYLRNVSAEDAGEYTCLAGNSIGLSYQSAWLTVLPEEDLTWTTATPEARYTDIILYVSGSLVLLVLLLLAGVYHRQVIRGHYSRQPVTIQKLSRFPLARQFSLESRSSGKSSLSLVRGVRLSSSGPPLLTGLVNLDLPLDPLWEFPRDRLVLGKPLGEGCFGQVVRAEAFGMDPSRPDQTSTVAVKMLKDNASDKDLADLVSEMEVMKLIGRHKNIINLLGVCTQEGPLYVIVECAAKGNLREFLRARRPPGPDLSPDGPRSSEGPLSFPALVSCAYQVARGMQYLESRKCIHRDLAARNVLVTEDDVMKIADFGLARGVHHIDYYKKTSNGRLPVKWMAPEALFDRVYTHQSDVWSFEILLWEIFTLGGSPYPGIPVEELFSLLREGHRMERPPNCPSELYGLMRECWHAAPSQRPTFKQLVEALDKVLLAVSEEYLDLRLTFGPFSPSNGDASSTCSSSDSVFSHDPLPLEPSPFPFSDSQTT
Description: told with the epitope alignment.

Values joined by “and” are separate entries in the source; they are usually repeats but may differ in a detail not shown here. Identical values can stand only once.

B1: Hu3B6a (antibody, human IgG1, V domains shown)
VH: EVQLVESGGGLVQPGGSLRLSCAASGFTFSNYYMSWVRQAPGKGLEWVATINPSGTRTYYPDSVKGRFTISRDNAKNSLYLQMNSLRAEDTAVYYCARLYNNYAFDYWGQGTLVTVSS
VL: DIQMTQSPSSLSASVGDRVTITCRASESISTLLHWYQQKPGKAPKLLIYGTSNLESGVPSRFSGSGSGTDFTLTISSLQPEDFATYYCQQSWNDPPTFGGGTKVEIK
The IC50 is the concentration needed to halve the response being measured. Take B1: in test [1], the half-maximal inhibitory concentration (IC50) is 0.13 µg/mL and 0.87 nM.

B2: Hu3B6e (antibody, human IgG1, V domains shown)
VH: EVQLVESGGGLVQPGGSLRLSCAASGFTFSNYYMSWVRQAPGKGLEWVANINPSGTRTYYPDSVKGRFTISRDNAKNSLYLQMNSLRAEDTAVYYCARLYNNYAFDYWGQGTLVTVSS
VL: DIQMTQSPSSLSASVGDRVTITCRASESVSTLMHWYQQKPGKAPKLLIYGTSNLESGVPSRFSGSGSGTDFTLTISSLQPEDFATYYCQQSWNDPPTFGGGTKVEIK
On to B2, for which, in test [1], the half-inhibitory concentration (IC50) was 0.16 µg/mL and 1 nM.

B3: Hu3B6b (antibody, human IgG1, V domains shown)
VH: EVQLVESGGGLVQPGGSLRLSCAASGFTFSNYYMSWVRQAPGKGLEWVANINPSGTRTYYPDSVKGRFTISRDNAKNSLYLQMNSLRAEDTAVYYCARLYNNYAFDYWGQGTLVTVSS
VL: DIQMTQSPSSLSASVGDRVTITCRASESISTLLHWYQQKPGKAPKLLIYGTSNLESGVPSRFSGSGSGTDFTLTISSLQPEDFATYYCQQSWNDPPTFGGGTKVEIK
For the molecule B3, the IC50 in test [1] was 0.4 µg/mL and 2.7 nM.

B4: Hu3B6c (antibody, human IgG1, V domains shown)
VH: EVQLVESGGGLVQPGGSLRLSCAASGFTFSNYYMSWVRQAPGKGLEWVATINPSGTRTYYPDSVKGRFTISRDSAKSSLYLQMNSLRAEDTAVYYCARLYNNYAFDYWGQGTLVTVSS
VL: DIQMTQSPSSLSASVGDRVTITCRASESISTLLHWYQQKPGKAPKLLIYGTSNLESGVPSRFSGSGSGTDFTLTISSLQPEDFATYYCQQSWNDPPTFGGGTKVEIK
As for B4, the IC50 in test [1] is 0.07 µg/mL and 0.47 nM.

B5: Hu3B6d (antibody, human IgG1, V domains shown)
VH: EVQLVESGGGLVQPGGSLRLSCAASGFTFSNYYMSWVRQAPGKGLEWVATINPSGTRTYYPDSVKGRFTISRDNAKNSLYLQMNSLRAEDTAVYYCARLYNNYAFDYWGQGTLVTVSS
VL: DIQMTQSPSSLSASVGDRVTITCRASESVSTLMHWYQQKPGKAPKLLIYGTSNLESGVPSRFSGSGSGTDFTLTISSLQPEDFATYYCQQSWNDPPTFGGGTKVEIK
Turning to B5, the IC50 in test [1] was 0.03 µg/mL and 0.2 nM.

B6: Hu3B6f (antibody, human IgG1, V domains shown)
VH: EVQLVESGGGLVQPGGSLRLSCAASGFTFSNYYMSWVRQAPGKGLEWVATINPSGTRTYYPDSVKGRFTISRDSAKSSLYLQMNSLRAEDTAVYYCARLYNNYAFDYWGQGTLVTVSS
VL: DIQMTQSPSSLSASVGDRVTITCRASESVSTLMHWYQQKPGKAPKLLIYGTSNLESGVPSRFSGSGSGTDFTLTISSLQPEDFATYYCQQSWNDPPTFGGGTKVEIK
In the case of B6, the IC50 in test [1] was 0.09 µg/mL and 0.6 nM.

B7: ch3B6 (antibody, human IgG1, V domains shown)
VH: EVQLVESGGGLVQPGRSLKLSCAASGFTFSNYYMAWVRQAPKKGLEWVATINPSGTRTYYPDSVKGRFTLSRDSAKSSLYLQMNSLKSEDTATFYCARLYNNYAFDYWGQGVMVTVSS
VL: DVQMTQSPALAVSPGERVSISCRASESVSTLMHWYQQKPGQQPKLLIYGTSNLESGVPARFSGSGSGTDFTLNIDPVEADDTATYFCQQSWNDPPTFGGGTKLELK
notes: human-rat chimeric antibody, human IgG1 constant regions and human kappa constant region; also called chimeric 3B6
Regarding B7, the binding result in test [2] is on record as “no binding (tested: 9 ug/mL)”; with murine FGFR4, “binds”.

(Values after patent US20210230280A1 (EXIRIS S R L, published 2021).)
